In PMC8778164, “Towards Complete Tumor Resection: Novel Dual-Modality Probes for Improved Image-Guided Surgery of GRPR-Expressing Prostate Cancer” (Pharmaceutics, 2022):

Legend:
GRPR = biological target: T1, GRPR (Homo sapiens, UniProt P30550); assay: Competition binding assay against [111In]In-NeoB on PC-3 cells; settings: IC50 of compound over IC50 of NeoB
T1 construct: host or cells: PC-3 cells (human prostate adenocarcinoma)
Description: GRPR-positive human-derived prostate adenocarcinoma epithelial PC-3 cells (ATCC, Manassas, VA, USA) were cultured in Ham’s F-12K (Kaighn’s) Medium (Gibco, Paisley, UK) supplemented with 10% fetal bovine serum, penicillin (100 units/mL) and streptomycin (100 µg/mL). Cells were routinely passaged and grown in tissue culture flasks at 37 °C in a humidified atmosphere with 5% CO2.
The affinity of all six probes for GRPR was determined using a competition binding assay. PC-3 cells were seeded in 12-well plates (2.5 × 10^5 cells/well) one day prior to the experiment. The next day, cells were washed with warm Dulbecco’s phosphate-buffered saline (PBS) (Gibco). Subsequently, cells were incubated for 1 h at 37 °C with 0.5 mL incubation medium (Ham’s F-12K, 20 mM HEPES, 1% BSA, pH 7.4) containing 10^−9 M [^111In]In-NeoB, in the presence or absence of increasing concentrations (10^−12 to 10^−6 M) of one of the six unlabeled probes or NeoB (positive control). After incubation, the medium was removed and cells were washed twice with cold PBS. To determine the amount of activity that was taken up by the cells, cells were lysed using 1 M NaOH for > 20 min at rt, then collected and measured in a γ-counter. To determine the amount of radioactivity added per well, samples of the incubation medium containing 10^−9 M [^111In]In-NeoB were also measured. The results are expressed as the percentage of added dose (%AD) and were normalized to the uptake of [^111In]In-NeoB (in the absence of cold compound). Data represent the mean ± standard deviation (SD) of triplicate wells.
Statistical analysis was performed using GraphPad Prism version 5.01 (GraphPad Software Inc., San Diego, CA, USA). The half-maximal inhibitory concentration (IC50) values were estimated by the log (inhibitor) vs. the normalized response fitting routine. To compare the uptake values of the two probes studied in vivo, an unpaired t-test was used with the significance levels set at 5%. The results are represented as mean ± standard deviation (SD).

[1] = Distribution coefficient (LogD7.4), shake-flask method; assay type: physicochemical; settings: n-octanol/PBS pH 7.4, n = 3; read-out: Log D7.4
Description: Distribution coefficients (LogD7.4) for the ^111In-labeled compounds were determined by a shake-flask method. The experiments were performed in triplicate for each radioligand. A sample containing the radioligand (0.5–2.0 MBq) was dissolved in 1 mL solution of phosphate-buffered saline (0.01 M, pH 7.4) and n-octanol (v:v = 1:1). The vials were vortexed vigorously and then centrifuged at 10,000 rpm for 3 min, for phase separation. Samples (10 μL) of each phase were taken out and analyzed using a gamma counter. LogD7.4 values were calculated, using the following equation: LogD7.4 = log {(counts in n-octanol phase)/(counts in PBS phase)}.

[2] = Stability in mouse serum at 37 °C (iTLC); assay type: in vitro ADME; settings: for Stability in Mouse Serum (%) 30 min / Stability in Mouse Serum (%) 1 h / Stability in Mouse Serum (%) 2 h / Stability in Mouse Serum (%) 4 h: intact labeled ligand after incubation at 37 °C in mouse serum, n = 1
Description: (§1) Stability in PBS was determined by incubating 20 µL of the labeled compounds (∼11 MBq) in PBS (80 µL) at 37 °C. Radiochemical purity was determined by iTLC at 30 min, 1 h, 2 h and 4 h. Stability in the serum was carried out by adding 70 µL of the labeled compound (∼35 MBq) to 330 µL of mouse serum (Merck, Haarlerbergweg, The Netherlands). The mixture was incubated at 37 °C. At different time points (30 min, 1 h, 2 h and 4 h), an aliquot of the mixture (50 µL) was added to 50 µL ACN. The vial was vortexed and centrifuged at 10,000 rpm for 20 min and the supernatant was analyzed by iTLC.

[3] = Stability in PBS at 37 °C (iTLC); assay type: physicochemical; settings: intact labeled ligand after incubation at 37 °C in PBS, n = 1
Description: as §1

T1 sequence (P30550 whole entry): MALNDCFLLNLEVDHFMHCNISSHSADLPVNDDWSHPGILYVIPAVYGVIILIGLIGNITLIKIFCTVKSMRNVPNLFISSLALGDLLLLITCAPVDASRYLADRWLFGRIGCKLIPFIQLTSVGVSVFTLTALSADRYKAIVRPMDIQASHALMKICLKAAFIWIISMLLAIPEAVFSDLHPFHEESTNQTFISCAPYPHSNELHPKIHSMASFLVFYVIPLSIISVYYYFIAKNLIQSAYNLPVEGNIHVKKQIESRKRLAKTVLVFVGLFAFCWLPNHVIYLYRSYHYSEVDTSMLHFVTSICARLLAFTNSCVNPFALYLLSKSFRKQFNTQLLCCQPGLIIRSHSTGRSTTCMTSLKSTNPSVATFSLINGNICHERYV

CC(C)CC(CC(C)C)NC(=O)[C@H](Cc1c[nH]cn1)NC(=O)CNC(=O)[C@@H](NC(=O)[C@H](C)NC(=O)[C@H](Cc1c[nH]c2ccccc12)NC(=O)[C@H](CCC(N)=O)NC(=O)[C@@H](Cc1ccccc1)NC(=O)COCC(=O)Nc1ccc(CNC(=O)OC2CCCC3C=NN=C(c4ccc(CNC(=O)CCCCC[N+]5=C(/C=C/C=C/C=C6N(C)c7ccc(S(=O)(=O)O)cc7C6(C)C)C(C)(C)c6cc(S(=O)(=O)[O-])ccc65)cc4)C3CC2)cc1)C(C)C (some centres unmarked) [Compound 10]
Ratio Compound/NeoB (IC50) (GRPR): 12.9

CC(C)CC(CC(C)C)NC(=O)[C@H](Cc1c[nH]cn1)NC(=O)CNC(=O)[C@@H](NC(=O)[C@H](C)NC(=O)[C@H](Cc1c[nH]c2ccccc12)NC(=O)[C@H](CCC(N)=O)NC(=O)[C@@H](Cc1ccccc1)NC(=O)CCOCCOCCOCCOCCNC(=O)OC1CCCC2C=NN=C(c3ccc(CNC(=O)CCCCC[N+]4=C(/C=C/C=C/C=C5N(C)c6ccc(S(=O)(=O)O)cc6C5(C)C)C(C)(C)c5cc(S(=O)(=O)[O-])ccc54)cc3)C2CC1)C(C)C (some centres unmarked) [Compound 11]
Ratio Compound/NeoB (IC50) (GRPR): 4.5

CC(C)CC(CC(C)C)NC(=O)[C@H](Cc1c[nH]cn1)NC(=O)CNC(=O)[C@@H](NC(=O)[C@H](C)NC(=O)[C@H](Cc1c[nH]c2ccccc12)NC(=O)[C@H](CCC(N)=O)NC(=O)[C@@H](Cc1ccccc1)NC(=O)COCC(=O)Nc1ccc(CNC(=O)[C@H](CCCCNC(=O)CCOCCOCCOCCOCCNC(=O)OC2CCCC3C=NN=C(c4ccc(CNC(=O)CCCCC[N+]5=C(/C=C/C=C/C=C6N(C)c7ccc(S(=O)(=O)O)cc7C6(C)C)C(C)(C)c6cc(S(=O)(=O)[O-])ccc65)cc4)C3CC2)NC(=O)CN2CCN(CC(=O)O)CCN(CC(=O)O)CCN(CC(=O)O)CC2)cc1)C(C)C (some centres unmarked) [Compound 12]
Ratio Compound/NeoB (IC50) (GRPR): 9.1

CC(C)CC(CC(C)C)NC(=O)[C@H](Cc1c[nH]cn1)NC(=O)CNC(=O)[C@@H](NC(=O)[C@H](C)NC(=O)[C@H](Cc1c[nH]c2ccccc12)NC(=O)[C@H](CCC(N)=O)NC(=O)[C@@H](Cc1ccccc1)NC(=O)CCOCCOCCOCCOCCNC(=O)[C@H](CCCCNC(=O)CCOCCOCCOCCOCCNC(=O)OC1CCCC2C=NN=C(c3ccc(CNC(=O)CCCCC[N+]4=C(/C=C/C=C/C=C5N(C)c6ccc(S(=O)(=O)O)cc6C5(C)C)C(C)(C)c5cc(S(=O)(=O)[O-])ccc54)cc3)C2CC1)NC(=O)CN1CCN(CC(=O)O)CCN(CC(=O)O)CCN(CC(=O)O)CC1)C(C)C (some centres unmarked) [Compound 13]
Ratio Compound/NeoB (IC50) (GRPR): 18.2

CC(C)CC(CC(C)C)NC(=O)[C@H](Cc1c[nH]cn1)NC(=O)CNC(=O)[C@@H](NC(=O)[C@H](C)NC(=O)[C@H](Cc1c[nH]c2ccccc12)NC(=O)[C@H](CCC(N)=O)NC(=O)[C@@H](Cc1ccccc1)NC(=O)COCC(=O)Nc1ccc(CNC(=O)[C@H](CCCCNC(=O)OC2CCCC3C=NN=C(c4ccc(CNC(=O)CCCCC[N+]5=C(/C=C/C=C/C=C6N(C)c7ccc(S(=O)(=O)O)cc7C6(C)C)C(C)(C)c6cc(S(=O)(=O)[O-])ccc65)cc4)C3CC2)NC(=O)CN2CCN(CC(=O)O)CCN(CC(=O)O)CCN(CC(=O)O)CC2)cc1)C(C)C (some centres unmarked) [Compound 14]
Ratio Compound/NeoB (IC50) (GRPR): 24.6

CC(C)CC(CC(C)C)NC(=O)[C@H](Cc1c[nH]cn1)NC(=O)CNC(=O)[C@@H](NC(=O)[C@H](C)NC(=O)[C@H](Cc1c[nH]c2ccccc12)NC(=O)[C@H](CCC(N)=O)NC(=O)[C@@H](Cc1ccccc1)NC(=O)CCOCCOCCOCCOCCNC(=O)[C@H](CCCCNC(=O)OC1CCCC2C=NN=C(c3ccc(CNC(=O)CCCCC[N+]4=C(/C=C/C=C/C=C5N(C)c6ccc(S(=O)(=O)O)cc6C5(C)C)C(C)(C)c5cc(S(=O)(=O)[O-])ccc54)cc3)C2CC1)NC(=O)CN1CCN(CC(=O)O)CCN(CC(=O)O)CCN(CC(=O)O)CC1)C(C)C (some centres unmarked) [Compound 15]
Ratio Compound/NeoB (IC50) (GRPR): 11.2

CC(C)CC(CC(C)C)NC(=O)[C@H](Cc1c[nH]cn1)NC(=O)CNC(=O)[C@@H](NC(=O)[C@H](C)NC(=O)[C@H](Cc1c[nH]c2ccccc12)NC(=O)[C@H](CCC(N)=O)NC(=O)[C@@H](Cc1ccccc1)NC(=O)CCOCCOCCOCCOCCNC(=O)[C@H](CCCCNC(=O)CCOCCOCCOCCOCCNC(=O)OC1CCCC2C=NN=C(c3ccc(CNC(=O)CCCCC[N+]4=C(/C=C/C=C/C=C5N(C)c6ccc(S(=O)(=O)O)cc6C5(C)C)C(C)(C)c5cc(S(=O)(=O)[O-])ccc54)cc3)C2CC1)NC(=O)CN1CCN(CC(=O)O)CCN(CC(=O)O)CCN(CC(=O)O)CC1)C(C)C (some centres unmarked) [[^111In]In-13, metal not drawn]
logD [1]: -1.8 ± 0.01
Stability in Mouse Serum (%) 30 min [2]: 98.1%
Stability in Mouse Serum (%) 1 h [2]: 97.9%
Stability in Mouse Serum (%) 2 h [2]: 97.6%
Stability in Mouse Serum (%) 4 h ([2]; 4 h): 97.3%
Protein-Bound Fraction at 4 h (%) ([2]; mouse serum, 4 h): 5.6%
Stability in PBS (%) 30 min [3]: 87.4%
Stability in PBS (%) 1 h [3]: 87.5%
Stability in PBS (%) 2 h [3]: 86.2%
Stability in PBS (%) 4 h [3]: 84.4%

CC(C)CC(CC(C)C)NC(=O)[C@H](Cc1c[nH]cn1)NC(=O)CNC(=O)[C@@H](NC(=O)[C@H](C)NC(=O)[C@H](Cc1c[nH]c2ccccc12)NC(=O)[C@H](CCC(N)=O)NC(=O)[C@@H](Cc1ccccc1)NC(=O)COCC(=O)Nc1ccc(CNC(=O)[C@H](CCCCNC(=O)OC2CCCC3C=NN=C(c4ccc(CNC(=O)CCCCC[N+]5=C(/C=C/C=C/C=C6N(C)c7ccc(S(=O)(=O)O)cc7C6(C)C)C(C)(C)c6cc(S(=O)(=O)[O-])ccc65)cc4)C3CC2)NC(=O)CN2CCN(CC(=O)O)CCN(CC(=O)O)CCN(CC(=O)O)CC2)cc1)C(C)C (some centres unmarked) [[^111In]In-14, metal not drawn]
logD [1]: -1.52 ± 0.1
Stability in Mouse Serum (%) 30 min [2]: 94.6%
Stability in Mouse Serum (%) 1 h [2]: 94.1%
Stability in Mouse Serum (%) 2 h [2]: 94.0%
Stability in Mouse Serum (%) 4 h ([2]; 4 h): 94.1%
fraction unbound at 4 h ([2]; mouse serum, 4 h, read-out: Protein-Bound Fraction at 4 h (%) (converted)): 0.929
Stability in PBS (%) 30 min [3]: 74.2%
Stability in PBS (%) 1 h [3]: 48.5%
Stability in PBS (%) 2 h [3]: 30.9%
Stability in PBS (%) 4 h [3]: 33.7%
